Test results as given in US20230189818A1, “RNA-BASED CONTROL OF BOTRYTIS” (priority 2021, published 2023).

B1: GS659: dsRNA trigger targeting B. cinerea SDH (XM_001548300.2_200_pos_342); trigger SEQ ID NO 16, RNA 28, reverse complement 40 (nucleic acid, listed as Botrytis cinerea)
sense: UCAGAUGCGAACCAUGGCAUCAGUCGACAGCUCAGUACCUGAAAGUCCUACCGUUUCUCCAUCCCGUCCUGUCGAAUCUGCUUCCAAGACCUCCACUGUCAAGGAACCUGCUGCCGACUCGGAGUCUUUGAUCAAGACAUUCAACAUUUACAGAUGGAACCCAGAUGAGCCAACCAGCAAGCCCCGCAUGCAAUCUUACA
antisense: UGUAAGAUUGCAUGCGGGGCUUGCUGGUUGGCUCAUCUGGGUUCCAUCUGUAAAUGUUGAAUGUCUUGAUCAAAGACUCCGAGUCGGCAGCAGGUUCCUUGACAGUGGAGGUCUUGGAAGCAGAUUCGACAGGACGGGAUGGAGAAACGGUAGGACUUUCAGGUACUGAGCUGUCGACUGAUGCCAUGGUUCGCAUCUGA
B2: GS413: dsRNA trigger targeting B. cinerea NBP35 (XM_001552213.2); trigger SEQ ID NO 15, RNA 27, reverse complement 39 (nucleic acid, listed as Botrytis cinerea)
sense: GCAAAAUUCCAUUGUUGCUUUGUAAACAUCCAUCCUACGACUUUAUUAUCUCAUCGAUCAUCCCACAAUUUACAUUUUCCAUUUUACACUCAAUAAACAAUUGAAAAACAAUAUUCUGAGUUGGUCGCAGUAAAUCAUGGCUCCAUCUCUUGAGGAAAGGCCCGAUGCUGUGCAAGACGUCCUCUCAAAUCCUCUCAAAAAUGCUCCCAAACUUGUCGCCCCAGAACCUGAACAUUGUCCCGGUCCAGAAUCCGAAGCGGCGGGAAAGGCAGAUUCUUGCGCGGGCUGUCCAAACCAAGCCAUAUGCGCAUCCGCACCCAAAGGUCCCGAUCCAGAUAUUCCAGCUAUAACUGCACGUCUUGCUGGUAUCAAACAUAAAGUCUUAAUUCUGUCGGGGAAAGGUGGUGUAGGAAAAAGCACAUUUACAACUUUACUUGCACAUGCCUUCGCAACAAAUGAGGACAACACAGUAGGAAUCAU
antisense: AUGAUUCCUACUGUGUUGUCCUCAUUUGUUGCGAAGGCAUGUGCAAGUAAAGUUGUAAAUGUGCUUUUUCCUACACCACCUUUCCCCGACAGAAUUAAGACUUUAUGUUUGAUACCAGCAAGACGUGCAGUUAUAGCUGGAAUAUCUGGAUCGGGACCUUUGGGUGCGGAUGCGCAUAUGGCUUGGUUUGGACAGCCCGCGCAAGAAUCUGCCUUUCCCGCCGCUUCGGAUUCUGGACCGGGACAAUGUUCAGGUUCUGGGGCGACAAGUUUGGGAGCAUUUUUGAGAGGAUUUGAGAGGACGUCUUGCACAGCAUCGGGCCUUUCCUCAAGAGAUGGAGCCAUGAUUUACUGCGACCAACUCAGAAUAUUGUUUUUCAAUUGUUUAUUGAGUGUAAAAUGGAAAAUGUAAAUUGUGGGAUGAUCGAUGAGAUAAUAAAGUCGUAGGAUGGAUGUUUACAAAGCAACAAUGGAAUUUUGC

Columns and labels:
Botrytis cinerea conidia = experiment: In vitro liquid-based assay (fungal biomass, 96-well plates, Cytation 5); format: cell-based; details: co-incubated with conidia for three days, vs untreated control
Method: Fungal culture. The Botrytis cinerea was plated each week the culture onto Malt Extract Agar (MEA) from long-term storage on silica stored at 4° C. Three pellets of silica were added to the center of a MEA agar plate and grown at room temperature without parafilm/tape seal for 10-14 days before use; a culture 12 days old was typically used.
Spore and media preparation. A pure culture of B. cinerea was flooded with a 0.01% Triton x-100 solution and conidia scraped free with a sterile hockey stick. The suspension was transferred to two, 1.5 mL centrifuge tubes and centrifuged at 8000 rpm for two minutes. The supernatant was discarded, pelleted spores washed twice with sterile water, then resuspended in sterile water. Conidia were quantified using a hemacytometer and diluted to a final concentration of 5000 conidia/mL stock. A stock solution of 1.25× minimal media was prepared for the assay setup using the components below. Once the stock solution was made, the pH was adjusted to 6.0 using NaOH or KOH, then filter sterilized through a 0.2 um filter tower and vacuum pump and stored at 4° C. The Kao & Michayluk Vitamins (100×) is a filter sterilized stock solution. The stock contains vitamins and amino acids as described by Kao & Michayluk. After filter sterilization, 20 mg of 4-Aminobenzoic acid in 100 ml of solution was added.
Experimental setup. Screening assays were setup in 96-well plates with conidia co-incubated with treatments (controls and dsRNAs) for three days before determining fungal biomass. Each treatment was replicated eight times within a single plate. In each well consisted of 12.5 μl of conidia suspension, 25 μl of the treatment, 12.5 μl of sterile deionized water, and 200 μl of minimal media. Each plate was covered with a breath right film and placed in the percival growth chamber at 23° C. on the shaking platform set to 120 RPM with 24-hour lighting. Plates were incubated for 72 hours before determining fungal growth.
Reading assay plate. Fungal biomass was determined by reading plates with the Cytation 5 machine. The program was set to compile 8 photo slices per well under brightfield microscopy with a 2.5× lens to measure biomass.
Data analysis. Analysis will automatically run on Cytation5 to determine final biomass.
Results are shown in Table 1B representing the average reduction in biomass vs. control for tested sequences across several runs described above.

[1] = test system: Botrytis cinerea isolate (B05.10); experiment: Detached leaf assay (tomato leaflets, lesion size); format: in vivo; details: five days post inoculation, vs untreated inoculated control
Method: Plant tissue. Tomato plants, variety Brandywine, were grown in the greenhouse for 3 weeks before harvesting the first true leaves for assays. Nodes 2-4 were prioritized for harvest and only lateral leaflets were used for assays. Leaflets of approximately the same size were used each week and were randomized among treatments. Detached leaflets were immediately brought into the lab for treatment and used within 4 hours of harvest. Detached leaflets were kept at 4° C. until they were treated and placed onto a 1% water agar medium for incubation.
Fungal culture. A Botrytis cinerea isolate (B05.10) was preserved on silica for long-term storage and pulled from these tubes stored at 4° C. for growth on a nutritive medium. Three pellets of silica were added to the center of a Malt Extract Agar (MEA) agar plate and grown at room temperature without parafilm/tape seal for ˜14 days, or until abundant conidia formation, before use.
Treatment of leaflets. Leaflets were treated 24 hours before inoculation and applied using an atomizer to get a fine mist of small droplets entirely covering the leaflet. Silwet L-77 was used as a spreader and added for a 0.03% final concentration (Silwet L-77 brand Phyto Technology Laboratories, S7777 Lot #14D7777001 F). The inoculated control was sprayed with the same volume of sterile DI water with Silwet L-77 in the absence of fungicide or experimental material. Leaflets were spray treated by laying them on a paper towel and holding the atomizer ˜6″ away from the leaflet for applications. Treated leaves were placed on a 1% water agar (10 g Bacto Agar, Difco, in 1 L deionized water, sterilized for 30 minutes at 121° C. and poured when reached a temp of 55° C. into 100×20 mm Petri dishes), with lids of the Petri dishes placed back on before putting Petri dishes under plastic bags to maintain humidity before inoculation the following day. Petri dishes of treated leaflets were left on the lab counter until the following day. Each treatment was replicated ten times with each replicate being a single treated leaflet with two inoculation sites, one on each side of the leaf midvein.
Inoculation. The conidial suspension was prepared by pouring a 7% white grape juice solution onto the culture plate, then scraping the plate with a sterile spatula to dislodge the spores and mycelia. The grape juice solution was prepared by mixing Welch's brand organic white grape juice into sterile deionized water. After dislodging the spores and mycelia of the culture, the suspension was poured through two layers of cheesecloth to remove fungal mycelia and catch the conidial suspension in a clean 50 mL conical tube. Approximately 3 uL of TWEEN 20 was added to conidial suspension to prevent sticking to conical tube. The spore concentration was determined using a Neubauer Improved hemocytometer and inoculum was diluted with more 7% grape juice until a spore concentration of 1×10^5 conidia/mL was reached. Inoculum was used to inoculate host tissue within 2 hours of preparation. Each tomato leaflet was inoculated twice, with inoculation sites placed one per side of the leaflet midvein. A 10 μL volume of spore suspension was placed at each inoculation site using a repeater pipette. Special care was taken not to touch the tip to leaflet surface to avoid contamination between treatments.
Incubation. Petri dishes were placed on lunch trays 6 plates high and moved to an incubator. The incubator was humidity controlled and holds at ˜75% relative humidity. The incubator was kept on 12/12 light/dark days and is set to a temperature of 23° C.
Rating. Measurements were taken at five days post inoculation (DPI). Each lesion that developed was measured using electronic calipers in 2 directions perpendicular to each other to help determine lesion diameter.
Data analysis. Data was analyzed using the SAS JMP statistical program (version 13.2.1) with comparisons made to the untreated, inoculated control. […]

[2] = test system: Botrytis cinerea B05.10 isolate; experiment: Greenhouse whole plant assay (tomato 'Lanai', disease severity); format: in vivo; details: final rating day (rating #3)
Method: Plant Tissue: Tomato seedlings, variety “Lanai”, were seeded then thinned to one plant per pot in an 18 cell tray. […] Plants were grown at a 23° C./17° C. day/night temperature with 10 hours of light each 24-hour period. The RH was ambient and plants were fertilized two times a day every day except for Sunday when they received only water. Plants were grown using Fafard brand medium (70-80% sphagnum peat moss, perlite, vermiculite, dolomite limestone and watering agent) for the entire experiment.
Fungal culture. A Botrytis cinerea B05.10 isolate was maintained, and spores were harvested as previously described for detached leaf assays, except a grape juice additive was not used for inoculum preparation.
Treatment of plants. Whole tomato plants were treated ˜24 hours before inoculation using the spray booth. A 0.07% Silwet L-77 solution was used as a spreader and added for a 0.07% final volume in water (Silwet L-77 brand Phyto Technology Laboratories, S7777 Lot #14D7777001 F). The spray booth deck was set to 20″ above the plant canopy and a twinjet 8002EVS nozzle with 100 mesh filter placed into the spray mechanism. The spray boom was calibrated before treatment application with specs as follows: 50 GPA rate, 1.25 MPH speed, 6′ spray length, single pass, and at 45 psi to get a catch of 133 mL in 10 seconds (+/−6 mL). Each treatment was replicated ten times for each experimental run.
Inoculation. Plants were inoculated using a mist-o-matic applicator, which is pressurized by manual pumping. The inoculum suspension was poured into the mist-o-matic immediately before inoculation in the GH space. The containers were only filled half-way and inoculum was applied evenly to the surface of all foliage with even coverage.
Incubation. Plants were incubated inside of a 40″ tall humidity chamber supported by PVC pipe and covered in 3M translucent plastic. A humidifier was inside the chamber and set to low and continuous humidity (filled with tap water). The temperature was D:24-20° C./N:20-18° C. with 15 hours of light, of which 9 hours was with supplemental lighting. RH was ambient and watering occurred everyday by sub-irrigation with the bench being flooded for 10 minutes before draining.
Rating. Tomato plants were rated three times during the two-week experiment with rating starting four days post-inoculation and occurring every three to four days after the initial rating date. Plants were rated for the number of lesions and disease severity, which is the percentage of the plant that was symptomatic including necrotic lesions, pathogen sporulation, and chlorosis.
Data analysis. […] Percent disease severity (%DS) was determined by the percent area of the tomato foliage with symptoms including lesions, chlorosis, necrosis, and wilting. Disease severity was rated at three dates (Rating #) over the 12-day test period. Treatments were compared to the untreated, inoculated control and a chemical standard. Statistical analysis was done using SAS JMP version 13.2.1 with treatments compared to the untreated, inoculated control and a chemical standard using Tukey-Kramer and student's T tests.

| Molecule | Average % Reduction in Biomass (Botrytis cinerea conidia; 25 ppm dsRNA) [%] | Average % Reduction in Biomass (Botrytis cinerea conidia; 150 ppm dsRNA) [%] | Average % Reduction in Lesion Size ([1]; 30 ppm) [%] | Average % Reduction in Lesion Size ([1]; 50 ppm) [%] | % control ([2]; 25 g ai/ha, three runs, four-week-old 'Lanai' tomato plant) [%] | % control ([2]; 8 g ai/ha, two runs, three-week-old 'Lanai' tomato plant) [%] | % control ([2]; 25 g ai/ha, two runs, three-week-old 'Lanai' tomato plant) [%] |
| --- | --- | --- | --- | --- | --- | --- | --- |
| B1 | 12 | 28 | 21.31 | 19.19 | 29 | – | – |
| B2 | 14 | 53 | 35.58 | 20.66 | – | 34 | 26 |
